# Tests used:
# [1] = system: growth hormone; assay: Counterregulatory hormone response: serum growth hormone (electrochemiluminescent immunoassay); format: in vivo, human; conditions: for Growth hormone at PG3.0 mmol/l, estimated geometric mean / Growth hormone at PGnadir, estimated geometric mean: serum, subgroup; for Growth hormone at PGnadir, estimated geometric mean: n=19 icodec
# Procedure: (§1) Plasma concentrations of glucagon were measured by an enzyme-linked immunosorbent assay (Mercodia AB, Uppsala, Sweden). Plasma concentrations of adrenaline (epinephrine) and noradrenaline (norepinephrine) were measured by liquid chromatography-mass spectrometry (Thermo Fisher Scientific, Dreieich, Germany). Serum concentrations of cortisol and growth hormone were measured by electrochemiluminescent immunoassays (Roche Diagnostics, Mannheim, Germany).
# [2] = system: glucagon; assay: Counterregulatory hormone response: plasma glucagon (ELISA); format: in vivo, human; conditions: for Glucagon at PG3.0 mmol/l, estimated geometric mean / Glucagon at PGnadir, estimated geometric mean: plasma, subgroup
# Procedure: as §1
# [3] = system: individuals with type 2 diabetes; assay: Hypoglycaemia awareness question 'Do you feel hypo?' during hypoglycaemia induction; format: in vivo, human; conditions: subgroup
# Procedure: Hypoglycaemia awareness was determined by asking the question, ‘Do you feel hypo?’, to the participant.
# [4] = system: individuals with type 2 diabetes; assay: Safety: adverse events and non-induced hypoglycaemic episodes during treatment periods
# Text: Safety assessments during the trial included adverse events (AEs), hypoglycaemic episodes (other than those induced), vital signs (other than those assessed during hypoglycaemia induction), electrocardiograms, physical examinations and clinical laboratory assessments (haematology, biochemistry and urinalysis).
# AEs and hypoglycaemic episodes (other than those induced) during the treatment periods were summarised. The end of each treatment period was defined as 7 days after the last icodec dose and 2 days after the last glargine U100 dose. […] Hypoglycaemic episodes were classified as level 1 (PG <3.9 mmol/l and ≥3.0 mmol/l), level 2 (PG <3.0 mmol/l) and level 3 (severe cognitive impairment requiring assistance for recovery) [20].
# [5] = system: individuals with type 2 diabetes; assay: Cognitive function: digit symbol substitution test (DSST); conditions: for Change in DSST at PG3.0 mmol/l, least-squares mean / Change in DSST at PGnadir, least-squares mean: change from baseline, subgroup
# Procedure: Hypoglycaemic response assessments were conducted at predefined PG levels during hypoglycaemia development and recovery (Fig. 1b). Hypoglycaemic symptoms score (HSS), hypoglycaemia awareness, counterregulatory hormones, vital signs and cognitive function tests were assessed at baseline (PG5.5 mmol/l), during hypoglycaemia development (PG3.9 mmol/l and PG3.0 mmol/l) and at PGnadir.
# Cognitive function was assessed using the trail making B (TMB) test, the digit symbol substitution test (DSST) and the four-choice reaction time (4CRT) test. In the TMB test from the Halstead Reitan Neuropsychological Battery [16, 17], the participant connects 25 circles distributed on a chart in the correct sequence as quickly as possible. The circles contain a number (1–13) or a letter (A–L), and the correct sequence consists of alternating numbers and letters (i.e. 1–A–2–B–3 etc). The test result is the time needed to complete the task correctly. In the DSST, which is a subtest of the Wechsler Adult Intelligence Scale - Revised [18], nine digits are represented by nine different symbols. During 90 s, the participant is requested to write down the appropriate symbol for as many numbers as possible in a given array. The test result is the number of correct responses. […] In 100 cycles, the participant responds by pressing the corresponding position on a keypad. The test result has two components: percentage of correct answers and the mean response time.
# (§3) Changes in HSS, vital signs and cognitive function tests from baseline (PG5.5 mmol/l) to PG3.0 mmol/l and to PGnadir were compared between insulin products at each of the two dose levels using the same approach as described for PGnadir, except that no logarithmic transformation was done and that the baseline value was included as a covariate. Least-squares means, treatment difference and 95% CI were derived.
# [6] = system: insulin receptor; conditions: ref [9], [10]; cited from earlier work
# Text: (§2) In addition, the low insulin receptor binding affinity of icodec contributes to its long half-life by reducing the clearance rate, as insulin is mainly cleared by internalisation following binding to and activation of the insulin receptor [9, 10]. In case of excess amounts of icodec throughout the body, e.g ...
# [7] = system: albumin; conditions: ref [9], [10]; cited from earlier work
# Text: as §2
# [8] = system: individuals with type 2 diabetes; assay: Vital signs during hypoglycaemia induction
# Procedure: Hypoglycaemic response assessments were conducted at predefined PG levels during hypoglycaemia development and recovery (Fig. 1b). Hypoglycaemic symptoms score (HSS), hypoglycaemia awareness, counterregulatory hormones, vital signs and cognitive function tests were assessed at baseline (PG5.5 mmol/l), during hypoglycaemia development (PG3.9 mmol/l and PG3.0 mmol/l) and at PGnadir. In addition, counterregulatory hormones and vital signs were assessed during recovery from hypoglycaemia at PG3.0 mmol/l, PG3.9 mmol/l and PG5.5 mmol/l.
# Vital signs (diastolic blood pressure, systolic blood pressure and pulse) were measured after ≥5 min of rest in a supine position.
# as §3
# [9] = double dose, n=17 icodec, 15 glargine U100
# [10] = triple dose, n=20 icodec, 28 glargine U100
# [11] = treatment periods, outside hypoglycaemia induction experiments
# [12] = double dose, change from baseline, subgroup, n=17 icodec, 15 glargine U100
# [13] = double dose, change from baseline, subgroup, n=20 icodec, 19 glargine U100
substance,measurement,setting,value
insulin icodec,"Growth hormone at PG3.0 mmol/l, treatment ratio (95% CI) icodec vs glargine U100",[1]; double dose,"0.89 (0.46, 1.75)"
same,"Growth hormone at PGnadir, treatment ratio (95% CI) icodec vs glargine U100",[1]; double dose,"1.35 (0.94, 1.94)"
same,"Growth hormone at PG3.0 mmol/l, estimated geometric mean",[1]; [9],3.6 µg/L
same,"Growth hormone at PGnadir, estimated geometric mean","[1]; double dose, 19 glargine U100",4.7 µg/L
same,"Growth hormone at PG3.0 mmol/l, treatment ratio (95% CI) icodec vs glargine U100",[1]; triple dose,1.54
same,"Growth hormone at PGnadir, treatment ratio (95% CI) icodec vs glargine U100",[1]; triple dose,"1.10 (0.50, 2.43)"
same,"Growth hormone at PGnadir, estimated geometric mean","[1]; triple dose, 29 glargine U100",3.8 µg/L
same,"Growth hormone at PG3.0 mmol/l, estimated geometric mean",[1]; [10],3.7 µg/L
same,"Glucagon at PG3.0 mmol/l, treatment ratio (95% CI) icodec vs glargine U100",[2]; double dose,"0.83 (0.59, 1.16)"
same,"Glucagon at PGnadir, treatment ratio (95% CI) icodec vs glargine U100",[2]; double dose,"0.92 (0.69, 1.23)"
same,"Glucagon at PG3.0 mmol/l, estimated geometric mean",[2]; [9],39.6 ng/L
same,"Glucagon at PGnadir, estimated geometric mean","[2]; double dose, n=19 icodec, 19 glargine U100",48.9 ng/L
same,"Glucagon at PGnadir, treatment ratio (95% CI) icodec vs glargine U100",[2]; triple dose,"1.01 (0.74, 1.38)"
same,"Glucagon at PG3.0 mmol/l, treatment ratio (95% CI) icodec vs glargine U100","[2]; triple dose, listed as Insulin icodec","1.07 (0.86, 1.33)"
same,"Glucagon at PG3.0 mmol/l, treatment ratio (95% CI) icodec vs glargine U100","[2]; triple dose, listed as icodec",1.07
same,"Glucagon at PG3.0 mmol/l, estimated geometric mean",[2]; [10],55.2 ng/L
same,"Glucagon at PGnadir, estimated geometric mean","[2]; triple dose, n=20 icodec, 29 glargine U100",59.8 ng/L
same,Proportion of individuals answering 'Yes' to 'Do you feel hypo?',"[3]; double dose, at PG3.0 mmol/l, n=9/17 icodec, 2/15 glargine U100",52.9%
same,Proportion of individuals answering 'Yes' to 'Do you feel hypo?',"[3]; double dose, at PGnadir, n=14/20 icodec, 10/19 glargine U100",70.0%
same,Proportion of individuals answering 'Yes' to 'Do you feel hypo?',"[3]; triple dose, at PG3.0 mmol/l, n=5/20 icodec, 8/28 glargine U100",25.0%
same,Proportion of individuals answering 'Yes' to 'Do you feel hypo?',"[3]; triple dose, at PGnadir, n=9/20 icodec, 15/29 glargine U100",45.0%
same,Number of level 2 hypoglycaemic episodes,[4]; from end of hypoglycaemia induction experiment until 1 week after triple dose,six episodes in five individuals
same,Number of level 2 hypoglycaemic episodes,[4]; from end of hypoglycaemia induction experiment until 2 weeks after double dose,four episodes in three individuals
same,"Duration of level 2 hypoglycaemic episodes, mean±SD","[4]; over both doses, treatment periods, outside induction",25.3 ± 8.5 min
same,AE rate,[4]; treatment periods,10.9 AEs per participant-year of exposure
same,"Rate of clinically significant hypoglycaemic episodes (level 2, PG <3.0 mmol/l)",[4]; [11],3.4 episodes per participant-year of exposure
same,Severe hypoglycaemic episodes (level 3),[4]; [11],no severe hypoglycaemic episodes
same,Number of AEs reported,"[4]; treatment periods, exposure 4.8 participant-years icodec, 1.6 glargine U100",52 AEs
same,"Change in DSST at PG3.0 mmol/l, treatment difference (95% CI) icodec vs glargine U100",[5]; double dose,"1.2 (-3.1, 5.5)"
same,"Change in DSST at PGnadir, treatment difference (95% CI) icodec vs glargine U100",[5]; double dose,"0.6 (-3.7, 4.9)"
same,"Change in DSST at PG3.0 mmol/l, least-squares mean","[5]; double dose, n=16 icodec, 15 glargine U100",-5.4 number of correct responses
same,"Change in DSST at PGnadir, least-squares mean","[5]; double dose, n=18 icodec, 18 glargine U100",-6.7 number of correct responses
same,"Change in DSST at PG3.0 mmol/l, treatment difference (95% CI) icodec vs glargine U100",[5]; triple dose,"0.5 (-3.3, 4.3)"
same,"Change in DSST at PGnadir, treatment difference (95% CI) icodec vs glargine U100",[5]; triple dose,"-2.2 (-6.8, 2.5)"
same,"Change in DSST at PGnadir, least-squares mean","[5]; triple dose, n=19 icodec, 29 glargine U100",-9.1 number of correct responses
same,"Change in DSST at PG3.0 mmol/l, least-squares mean",[5]; [10],-5.5 number of correct responses
same,Insulin receptor binding affinity,[6],low
same,Binding to albumin,[7],"strong, reversible binding"
same,"Change in DBP at PG3.0 mmol/l, treatment difference (95% CI) icodec vs glargine U100",[8]; double dose,"1.7 (-3.1, 6.4)"
same,"Change in DBP at PGnadir, treatment difference (95% CI) icodec vs glargine U100",[8]; double dose,"0.5 (-4.0, 4.9)"
same,"Change in SBP at PG3.0 mmol/l, treatment difference (95% CI) icodec vs glargine U100",[8]; double dose,"3.7 (-4.3, 11.7)"
same,"Change in SBP at PGnadir, treatment difference (95% CI) icodec vs glargine U100",[8]; double dose,"-5.2 (-16.5, 6.1)"
same,"Change in pulse at PG3.0 mmol/l, treatment difference (95% CI) icodec vs glargine U100",[8]; double dose,"-0.9 (-7.4, 5.7)"
same,"Change in pulse at PGnadir, treatment difference (95% CI) icodec vs glargine U100",[8]; double dose,"0.2 (-5.0, 5.4)"
same,"Change in SBP at PG3.0 mmol/l, least-squares mean",[8]; [12],-4.9 mmHg
same,"Change in pulse at PG3.0 mmol/l, least-squares mean",[8]; [12],-1.3 beats/min
same,"Change in DBP at PGnadir, least-squares mean",[8]; [13],-5.4 mmHg
same,"Change in SBP at PGnadir, least-squares mean",[8]; [13],-7.7 mmHg
same,"Change in pulse at PGnadir, least-squares mean",[8]; [13],1.2 beats/min
same,"Change in DBP at PG3.0 mmol/l, least-squares mean","[8]; double dose, change from baseline, supine, subgroup, n=17 icodec, 15 glargine U100",-6.1 mmHg
same,"Change in DBP at PG3.0 mmol/l, treatment difference (95% CI) icodec vs glargine U100",[8]; triple dose,"0.8 (-3.4, 5.0)"

# From PMC10317887, “Hypoglycaemia frequency and physiological response after double or triple doses of once-weekly insulin icodec vs once-daily insulin glargine U100 in type 2 diabetes: a randomised crossover trial” (Diabetologia, 2023)
